The source of these data is patent publication US20160272683A1 (Novo Nordisk, published 2016).

Numbered stars: 1 amine (or outer) side, 2 acyl side, 3 side chain; on linkers, the order of the positions; unused ones are H or OH. Ends that are not written are not given here. * marks the point of attachment. C20 diacid = O=C(O)CCCCCCCCCCCCCCCCCCC(=O)*; C18 diacid = O=C(O)CCCCCCCCCCCCCCCCC(=O)*; C16 diacid = O=C(O)CCCCCCCCCCCCCCC(=O)*; γGlu = O=C(O)[C@H](CCC(=O)[*:2])N[*:1]; C14 diacid = O=C(O)CCCCCCCCCCCCC(=O)*; C12 diacid = O=C(O)CCCCCCCCCCC(=O)*; Palmitoyl = CCCCCCCCCCCCCCCC(=O)*; AEEA = NCCOCCOCC(=O)O

First the molecules themselves.
T1: human amylin 3(a) receptor (human calcitonin receptor co-expressed with RAMP-3) on BHK570/CRE-luc cells (human, UniProt P30988 25-474; O60896 24-148)
T1 sequence (looked up) 1: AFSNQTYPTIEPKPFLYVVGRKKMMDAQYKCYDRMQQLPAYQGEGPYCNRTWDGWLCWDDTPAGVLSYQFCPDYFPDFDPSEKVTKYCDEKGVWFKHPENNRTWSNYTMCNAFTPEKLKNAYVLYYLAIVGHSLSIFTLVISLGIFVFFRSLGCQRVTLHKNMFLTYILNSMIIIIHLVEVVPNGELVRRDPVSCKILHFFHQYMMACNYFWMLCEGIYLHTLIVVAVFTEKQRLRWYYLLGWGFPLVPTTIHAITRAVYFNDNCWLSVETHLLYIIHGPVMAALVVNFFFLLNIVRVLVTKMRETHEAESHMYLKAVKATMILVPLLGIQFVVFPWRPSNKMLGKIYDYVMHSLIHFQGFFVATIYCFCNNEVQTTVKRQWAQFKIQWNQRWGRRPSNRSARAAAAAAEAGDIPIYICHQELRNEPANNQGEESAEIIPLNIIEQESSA
T1 sequence (looked up) 2: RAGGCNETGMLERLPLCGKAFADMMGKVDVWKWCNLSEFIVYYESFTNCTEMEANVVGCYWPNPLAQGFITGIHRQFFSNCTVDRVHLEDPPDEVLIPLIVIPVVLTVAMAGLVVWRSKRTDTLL

T2: human calcitonin receptor on BHK570/CRE-luc cells (human, UniProt P30988 25-474)
T2 sequence (looked up): T1 sequence (looked up) 1

T3: human amylin receptor (human calcitonin receptor + human RAMP3) (human) (UniProt P30988)
T3 sequence (looked up) 1: T1 sequence (looked up) 1
T3 sequence (looked up) 2: T1 sequence (looked up) 2

B1: [N-terminal(C20 diacid-gGlu), des1, 4G, 9V, 12K, 15Q, 21Q, 23Y, 25P, 30S, 31G, 32T, 33Y]mimylin (peptide)
peptide: {C20 diacid-γGlu}-ASGLSTAVLGKLSQELHELQTYPPTETGSGTY-NH2
SMILES: CC(C)C[C@H](NC(=O)CNC(=O)[C@H](CO)NC(=O)[C@H](C)NC(=O)CC[C@H](NC(=O)CCCCCCCCCCCCCCCCCCC(=O)O)C(=O)O)C(=O)N[C@@H](CO)C(=O)N[C@H](C(=O)N[C@@H](C)C(=O)N[C@H](C(=O)N[C@@H](CC(C)C)C(=O)NCC(=O)N[C@@H](CCCCN)C(=O)N[C@@H](CC(C)C)C(=O)N[C@@H](CO)C(=O)N[C@@H](CCC(N)=O)C(=O)N[C@@H](CCC(=O)O)C(=O)N[C@@H](CC(C)C)C(=O)N[C@@H](Cc1c[nH]cn1)C(=O)N[C@@H](CCC(=O)O)C(=O)N[C@@H](CC(C)C)C(=O)N[C@@H](CCC(N)=O)C(=O)N[C@H](C(=O)N[C@@H](Cc1ccc(O)cc1)C(=O)N1CCC[C@H]1C(=O)N1CCC[C@H]1C(=O)N[C@H](C(=O)N[C@@H](CCC(=O)O)C(=O)N[C@H](C(=O)NCC(=O)N[C@@H](CO)C(=O)NCC(=O)N[C@H](C(=O)N[C@@H](Cc1ccc(O)cc1)C(N)=O)[C@@H](C)O)[C@@H](C)O)[C@@H](C)O)[C@@H](C)O)C(C)C)[C@@H](C)O
B2: [N-terminal(C20 diacid-gGlu), des1, 2L, 4Q, 8L, 9V, 15Q, 16R, 19R, 21Q, 23Y, 27Q, 30S, 31Q, 32T, 33Y]mimylin (peptide)
peptide: {C20 diacid-γGlu}-LSQLSTLVLGRLSQRLHRLQTYPRTQTGSQTY-NH2
SMILES: CC(C)C[C@H](NC(=O)CC[C@H](NC(=O)CCCCCCCCCCCCCCCCCCC(=O)O)C(=O)O)C(=O)N[C@@H](CO)C(=O)N[C@@H](CCC(N)=O)C(=O)N[C@@H](CC(C)C)C(=O)N[C@@H](CO)C(=O)N[C@H](C(=O)N[C@@H](CC(C)C)C(=O)N[C@H](C(=O)N[C@@H](CC(C)C)C(=O)NCC(=O)N[C@@H](CCCNC(=N)N)C(=O)N[C@@H](CC(C)C)C(=O)N[C@@H](CO)C(=O)N[C@@H](CCC(N)=O)C(=O)N[C@@H](CCCNC(=N)N)C(=O)N[C@@H](CC(C)C)C(=O)N[C@@H](Cc1c[nH]cn1)C(=O)N[C@@H](CCCNC(=N)N)C(=O)N[C@@H](CC(C)C)C(=O)N[C@@H](CCC(N)=O)C(=O)N[C@H](C(=O)N[C@@H](Cc1ccc(O)cc1)C(=O)N1CCC[C@H]1C(=O)N[C@@H](CCCNC(=N)N)C(=O)N[C@H](C(=O)N[C@@H](CCC(N)=O)C(=O)N[C@H](C(=O)NCC(=O)N[C@@H](CO)C(=O)N[C@@H](CCC(N)=O)C(=O)N[C@H](C(=O)N[C@@H](Cc1ccc(O)cc1)C(N)=O)[C@@H](C)O)[C@@H](C)O)[C@@H](C)O)[C@@H](C)O)C(C)C)[C@@H](C)O
B3: [N-terminal(C20 diacid-gGlu), des1, 4Q, 9V, 15Q, 16R, 19R, 21Q, 23Y, 27Q, 30S, 31Q, 32T, 33Y]mimylin (peptide)
peptide: {C20 diacid-γGlu}-ASQLSTAVLGRLSQRLHRLQTYPRTQTGSQTY-NH2
SMILES: CC(C)C[C@H](NC(=O)[C@H](CCCNC(=N)N)NC(=O)CNC(=O)[C@H](CC(C)C)NC(=O)[C@@H](NC(=O)[C@H](C)NC(=O)[C@@H](NC(=O)[C@H](CO)NC(=O)[C@H](CC(C)C)NC(=O)[C@H](CCC(N)=O)NC(=O)[C@H](CO)NC(=O)[C@H](C)NC(=O)CC[C@H](NC(=O)CCCCCCCCCCCCCCCCCCC(=O)O)C(=O)O)[C@@H](C)O)C(C)C)C(=O)N[C@@H](CO)C(=O)N[C@@H](CCC(N)=O)C(=O)N[C@@H](CCCNC(=N)N)C(=O)N[C@@H](CC(C)C)C(=O)N[C@@H](Cc1c[nH]cn1)C(=O)N[C@@H](CCCNC(=N)N)C(=O)N[C@@H](CC(C)C)C(=O)N[C@@H](CCC(N)=O)C(=O)N[C@H](C(=O)N[C@@H](Cc1ccc(O)cc1)C(=O)N1CCC[C@H]1C(=O)N[C@@H](CCCNC(=N)N)C(=O)N[C@H](C(=O)N[C@@H](CCC(N)=O)C(=O)N[C@H](C(=O)NCC(=O)N[C@@H](CO)C(=O)N[C@@H](CCC(N)=O)C(=O)N[C@H](C(=O)N[C@@H](Cc1ccc(O)cc1)C(N)=O)[C@@H](C)O)[C@@H](C)O)[C@@H](C)O)[C@@H](C)O
B4: [N-terminal(C18 diacid), 5I]mimylin (peptide)
peptide: {C18 diacid}-EASEISTAALGRLSAELHELATLPRTETGPESP-NH2
SMILES: CC[C@H](C)[C@H](NC(=O)[C@H](CCC(=O)O)NC(=O)[C@H](CO)NC(=O)[C@H](C)NC(=O)[C@H](CCC(=O)O)NC(=O)CCCCCCCCCCCCCCCCC(=O)O)C(=O)N[C@@H](CO)C(=O)N[C@H](C(=O)N[C@@H](C)C(=O)N[C@@H](C)C(=O)N[C@@H](CC(C)C)C(=O)NCC(=O)N[C@@H](CCCNC(=N)N)C(=O)N[C@@H](CC(C)C)C(=O)N[C@@H](CO)C(=O)N[C@@H](C)C(=O)N[C@@H](CCC(=O)O)C(=O)N[C@@H](CC(C)C)C(=O)N[C@@H](Cc1c[nH]cn1)C(=O)N[C@@H](CCC(=O)O)C(=O)N[C@@H](CC(C)C)C(=O)N[C@@H](C)C(=O)N[C@H](C(=O)N[C@@H](CC(C)C)C(=O)N1CCC[C@H]1C(=O)N[C@@H](CCCNC(=N)N)C(=O)N[C@H](C(=O)N[C@@H](CCC(=O)O)C(=O)N[C@H](C(=O)NCC(=O)N1CCC[C@H]1C(=O)N[C@@H](CCC(=O)O)C(=O)N[C@@H](CO)C(=O)N1CCC[C@H]1C(N)=O)[C@@H](C)O)[C@@H](C)O)[C@@H](C)O)[C@@H](C)O
B5: [N-terminal(C18 diacid)]mimylin (peptide)
peptide: {C18 diacid}-EASELSTAALGRLSAELHELATLPRTETGPESP-NH2
SMILES: CC(C)C[C@H](NC(=O)[C@H](C)NC(=O)[C@H](C)NC(=O)[C@@H](NC(=O)[C@H](CO)NC(=O)[C@H](CC(C)C)NC(=O)[C@H](CCC(=O)O)NC(=O)[C@H](CO)NC(=O)[C@H](C)NC(=O)[C@H](CCC(=O)O)NC(=O)CCCCCCCCCCCCCCCCC(=O)O)[C@@H](C)O)C(=O)NCC(=O)N[C@@H](CCCNC(=N)N)C(=O)N[C@@H](CC(C)C)C(=O)N[C@@H](CO)C(=O)N[C@@H](C)C(=O)N[C@@H](CCC(=O)O)C(=O)N[C@@H](CC(C)C)C(=O)N[C@@H](Cc1c[nH]cn1)C(=O)N[C@@H](CCC(=O)O)C(=O)N[C@@H](CC(C)C)C(=O)N[C@@H](C)C(=O)N[C@H](C(=O)N[C@@H](CC(C)C)C(=O)N1CCC[C@H]1C(=O)N[C@@H](CCCNC(=N)N)C(=O)N[C@H](C(=O)N[C@@H](CCC(=O)O)C(=O)N[C@H](C(=O)NCC(=O)N1CCC[C@H]1C(=O)N[C@@H](CCC(=O)O)C(=O)N[C@@H](CO)C(=O)N1CCC[C@H]1C(N)=O)[C@@H](C)O)[C@@H](C)O)[C@@H](C)O
B6: [N-terminal(C18 diacid), 9V]mimylin (peptide)
peptide: {C18 diacid}-EASELSTAVLGRLSAELHELATLPRTETGPESP-NH2
SMILES: CC(C)C[C@H](NC(=O)[C@H](CCC(=O)O)NC(=O)[C@H](Cc1c[nH]cn1)NC(=O)[C@H](CC(C)C)NC(=O)[C@H](CCC(=O)O)NC(=O)[C@H](C)NC(=O)[C@H](CO)NC(=O)[C@H](CC(C)C)NC(=O)[C@H](CCCNC(=N)N)NC(=O)CNC(=O)[C@H](CC(C)C)NC(=O)[C@@H](NC(=O)[C@H](C)NC(=O)[C@@H](NC(=O)[C@H](CO)NC(=O)[C@H](CC(C)C)NC(=O)[C@H](CCC(=O)O)NC(=O)[C@H](CO)NC(=O)[C@H](C)NC(=O)[C@H](CCC(=O)O)NC(=O)CCCCCCCCCCCCCCCCC(=O)O)[C@@H](C)O)C(C)C)C(=O)N[C@@H](C)C(=O)N[C@H](C(=O)N[C@@H](CC(C)C)C(=O)N1CCC[C@H]1C(=O)N[C@@H](CCCNC(=N)N)C(=O)N[C@H](C(=O)N[C@@H](CCC(=O)O)C(=O)N[C@H](C(=O)NCC(=O)N1CCC[C@H]1C(=O)N[C@@H](CCC(=O)O)C(=O)N[C@@H](CO)C(=O)N1CCC[C@H]1C(N)=O)[C@@H](C)O)[C@@H](C)O)[C@@H](C)O

The target in the first experiment is T1, human amylin 3(a) receptor (human …). The experiment can be described thus: cell-based or functional assay.
For the molecule B1, the “hAmylin-R funct. EC50 (pM), tested with HSA” value (shortened to “hAmylin-R funct. EC50 (pM)”) is 154 pM.
As for B2, the “hAmylin-R funct. EC50 (pM)” value is 44 pM.
Take B3: the “hAmylin-R funct. EC50 (pM)” value turned out to be 37 pM.

The target of another experiment is T2, human calcitonin receptor on …. Put plainly: cell-based or functional assay.
With B1, the “hCTR funct. EC50 (pM), tested with HSA” value turned out to be 62 pM.
Turning to B2, the “hCTR funct. EC50 (pM), tested with HSA” value is 50 pM.
Take B3: the “hCTR funct. EC50 (pM), tested with HSA” value was found to be 50 pM.

Another experiment has as its target T3, human amylin receptor (human calcitonin receptor + human RAMP3) (human). Put plainly: whole-cell competition vs 125I-rat amylin (Assay Va).
As usually defined, the IC50 is the concentration needed to halve the response being measured. As for EASELSTAALGRLSAELHELATLPRTETGPESP-NH2 [mimylin], the IC50 was found to be 0.511 nM.
On to B4, for which the 50% inhibitory concentration (IC50) came to 0.429 nM.
Still for that read-out and setting: for B5 the value was 0.902 nM; for {C12 diacid}-EASELSTAALGRLSAELHELATLPRTETGPESP-NH2 [[N-terminal(C12 diacid)]mimylin], 8.97 nM.
Regarding {C16 diacid}-EASELSTAALGRLSAELHELATLPRTETGPESP-NH2 [[N-terminal(C16 diacid)]mimylin], the half-inhibitory concentration (IC50) came out at 0.498 nM.
With B6, the IC50 was 0.796 nM.
In the case of Palmitoyl-EASELSTAALGRLSAELHELATLPRTETGPESP-NH2 [[N-terminal(C16)]mimylin], the 50% inhibitory concentration (IC50) worked out at 0.435 nM.
Same read-out and setting: for {C14 diacid}-EASELSTAALGRLSAELHELATLPRTETGPESP-NH2 [[N-terminal(C14 diacid)]mimylin] the value was 1.19 nM; for {C14 diacid-γGlu-γGlu-AEEA-AEEA-AEEA-AEEA}-EASELSTAALGRLSAELHELATLPRTETGPESP-NH2 [[N-terminal(C14 diacid-2xgGlu-4xOEG)]mimylin], 8.38 nM.
